Reference: US20070118934A1

Legend:
[1] = biological target: human rhinovirus serotype HRV-39; test: cell-based or functional assay
[2] = biological target: human rhinovirus serotype HRV-39
[3] = biological target: mouse (anti-human ICAM) monoclonal antibody

| Substance | IC50, cytopathic effect (CPE) assay, HRV-39 on HeLa S3 cells [1] [µg/mL] | fold lower IC50 than soluble ICAM-1, CPE assay [1] [fold] | IC50 (read off the curve) [2] [nM] | IC50 (read off the curve) [3] [µg/mL] |
| --- | --- | --- | --- | --- |
| IC1-5D/IgA (ICAM/IgA fusion, gift of Dr. Tim Springer; Martin et al. 1993) (from UniProt P05362 28-480; P01876 103-353) (Fc fusion) | 0.12 | 11.3 |  |  |
| ICAM-IgA (Fc fusion) |  |  | 3 |  |
| soluble human ICAM-1 (from UniProt P05362 28-480) (receptor) | 1.35 |  | 40 | 0.8 |
